Values of other authors as cited in PMC8043720.

Target: NaV1.7 (Homo sapiens) (UniProt Q15858)
Chain of UniProt Q15858 (Q15858 whole entry): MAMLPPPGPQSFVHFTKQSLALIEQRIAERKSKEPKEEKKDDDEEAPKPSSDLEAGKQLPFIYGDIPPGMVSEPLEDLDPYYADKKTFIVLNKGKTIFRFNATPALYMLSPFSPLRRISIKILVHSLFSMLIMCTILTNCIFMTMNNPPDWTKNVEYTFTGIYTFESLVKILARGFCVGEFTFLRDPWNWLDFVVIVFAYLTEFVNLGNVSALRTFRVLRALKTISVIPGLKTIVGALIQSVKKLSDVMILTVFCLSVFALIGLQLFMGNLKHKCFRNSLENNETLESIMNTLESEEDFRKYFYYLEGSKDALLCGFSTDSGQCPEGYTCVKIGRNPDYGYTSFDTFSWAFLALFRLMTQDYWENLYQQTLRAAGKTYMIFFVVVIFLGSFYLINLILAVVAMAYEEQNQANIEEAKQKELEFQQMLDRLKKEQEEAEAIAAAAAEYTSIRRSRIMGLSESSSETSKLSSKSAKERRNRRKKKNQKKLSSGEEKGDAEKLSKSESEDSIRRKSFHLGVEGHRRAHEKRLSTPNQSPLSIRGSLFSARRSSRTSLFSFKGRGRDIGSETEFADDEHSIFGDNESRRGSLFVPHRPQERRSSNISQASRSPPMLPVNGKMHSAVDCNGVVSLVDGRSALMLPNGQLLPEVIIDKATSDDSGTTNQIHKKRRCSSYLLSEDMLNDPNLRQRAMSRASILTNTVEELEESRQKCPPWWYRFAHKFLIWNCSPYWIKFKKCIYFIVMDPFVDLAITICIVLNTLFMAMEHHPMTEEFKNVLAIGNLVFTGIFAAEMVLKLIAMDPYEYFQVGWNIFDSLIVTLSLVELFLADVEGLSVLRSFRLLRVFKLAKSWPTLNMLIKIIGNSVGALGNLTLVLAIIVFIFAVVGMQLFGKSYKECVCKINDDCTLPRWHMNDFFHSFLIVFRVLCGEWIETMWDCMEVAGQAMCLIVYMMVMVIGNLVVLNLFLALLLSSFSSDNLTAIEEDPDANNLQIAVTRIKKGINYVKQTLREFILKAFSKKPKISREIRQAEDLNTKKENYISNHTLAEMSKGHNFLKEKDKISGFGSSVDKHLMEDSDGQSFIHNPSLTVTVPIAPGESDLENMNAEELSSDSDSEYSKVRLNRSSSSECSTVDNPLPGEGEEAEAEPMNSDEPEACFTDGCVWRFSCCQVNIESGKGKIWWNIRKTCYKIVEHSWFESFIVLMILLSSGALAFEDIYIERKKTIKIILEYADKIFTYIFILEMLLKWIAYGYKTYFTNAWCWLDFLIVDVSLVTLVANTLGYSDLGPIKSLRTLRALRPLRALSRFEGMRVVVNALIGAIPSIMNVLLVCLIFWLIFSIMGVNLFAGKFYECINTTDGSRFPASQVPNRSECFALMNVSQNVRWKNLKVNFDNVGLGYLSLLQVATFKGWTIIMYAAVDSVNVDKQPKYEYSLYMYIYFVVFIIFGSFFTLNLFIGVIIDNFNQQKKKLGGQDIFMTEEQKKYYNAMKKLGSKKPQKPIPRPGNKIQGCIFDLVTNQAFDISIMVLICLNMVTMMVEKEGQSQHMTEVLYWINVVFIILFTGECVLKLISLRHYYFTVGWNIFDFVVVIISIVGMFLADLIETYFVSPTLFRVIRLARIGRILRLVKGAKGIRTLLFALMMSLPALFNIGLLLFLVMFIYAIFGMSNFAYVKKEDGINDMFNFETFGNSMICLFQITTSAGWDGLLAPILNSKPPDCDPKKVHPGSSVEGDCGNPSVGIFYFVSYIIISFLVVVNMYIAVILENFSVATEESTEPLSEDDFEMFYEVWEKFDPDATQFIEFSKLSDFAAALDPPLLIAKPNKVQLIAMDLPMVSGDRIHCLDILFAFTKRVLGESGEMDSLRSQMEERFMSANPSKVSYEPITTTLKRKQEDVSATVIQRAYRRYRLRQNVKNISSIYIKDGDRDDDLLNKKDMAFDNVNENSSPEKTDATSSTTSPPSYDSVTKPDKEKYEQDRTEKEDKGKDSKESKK

HwTx-IV (from UniProt P83303)
Kd: 26 nM
